B1: SLC35F2 (parent)
chain: FVAFALCMFCLYSFMPLVIKVTSA
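Note: lentivirally expressed fusions sorted by FACS into six bins by GFP to DsRed ratio, PSI derived from sequencing read proportions per bin multiplied by bin number.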

This data set covers variants of B1. The data set can be described thus: protein stability index of a GFP-peptide fusion (GPS, HEK-293T) (PSI 1-6); higher = more stable. Conditions: c terminus: a fixed tail appended.
FVAFALCMFCLYSCMPLVIKVTSA: the protein stability index was found to be 2.43.
As for FVAFALCMFCLYSTMPLVIKVTSA, the protein stability index is 2.91.
On to FVAFALCMFCLYSQMPLVIKVTSA, for which the protein stability index turned out to be 2.31.
The figure for FVAFALCMFCLYSMMPLVIKVTSA is 2.52.
In the case of FVAFALCMFCLYSNMPLVIKVTSA it was 2.27; in that of FVAFALCMFCLYSRMPLVIKVTSA, 3.4.
The figure for FVAFALCMFCLYSWMPLVIKVTSA is 3.16; for FVAFALCMFCLYSEMPLVIKVTSA it is 2.86.
FVAFALCMFCLYSPMPLVIKVTSA: the protein stability index was determined as 2.46.
On to FVAFALCMFCLYSSMPLVIKVTSA, for which the protein stability index was 3.81.
The figure for FVAFALCMFCLYSGMPLVIKVTSA is 3.38; for FVAFALCMFCLYSKMPLVIKVTSA it is 2.77.
As to FVAFALCMFCLYSYMPLVIKVTSA, the protein stability index came out at 2.41.
Consider FVAFALCMFCLYSLMPLVIKVTSA, for which the protein stability index was found to be 3.56.
As to FVAFALCMFCLYSFMPDVIKVTSA, the protein stability index was 2.8.
For the variant FVAFALCMFCLYSFMPTVIKVTSA, the protein stability index was found to be 2.34.
In the case of FVAFALCMFCLYSFMPAVIKVTSA it was 2.46.
Take FVAFALCMFCLYSFMPMVIKVTSA: the protein stability index was found to be 3.65.
FVAFALCMFCLYSFMPQVIKVTSA: the protein stability index stood at 3.99.
With FVAFALCMFCLYSFMPEVIKVTSA, the protein stability index was 2.38.
As for FVAFALCMFCLYSFMPNVIKVTSA, the protein stability index was found to be 1.58.
On to FVAFALCMFCLYSFMPCVIKVTSA, for which the protein stability index worked out at 1.91.
In the case of FVAFALCMFCLYSFMPRVIKVTSA, the protein stability index stood at 2.36.
On to FVAFALCMFCLYSFMPHVIKVTSA, for which the protein stability index came to 2.77.
As for FVAFALCMFCLYSFMPGVIKVTSA, the protein stability index was 2.43.
For the variant FVAFALCMFCLYSFMPIVIKVTSA, the protein stability index is 2.03.
Take FVAFALCMFCLYSFMPWVIKVTSA: the protein stability index is 2.18.
In the case of FVAFALCMFCLYSFMPKVIKVTSA it was 4.14; in that of FVAFALCMFCLYSFMPFVIKVTSA, 2.35; in that of FVAFALCMFCLYSFMPYVIKVTSA, 3.6.
In the case of FVAFALCMFCLYSFMPPVIKVTSA it was 2.71.
The figure for FVAFALCMFCLYSFMPVVIKVTSA is 3.13; for FVAFALCMKCLYSFMPLVIKVTSA it is 3.39.
As for FVAFALCMGCLYSFMPLVIKVTSA, the protein stability index stood at 1.76.
In the case of FVAFALCMLCLYSFMPLVIKVTSA it was 2.07.
With FVAFALCMRCLYSFMPLVIKVTSA, the protein stability index is 3.23.
The figure for FVAFALCMDCLYSFMPLVIKVTSA is 3.1.
In the case of FVAFALCMPCLYSFMPLVIKVTSA, the protein stability index is 2.44.
Take FVAFALCMSCLYSFMPLVIKVTSA: the protein stability index is 2.61.
With FVAFALCMVCLYSFMPLVIKVTSA, the protein stability index is 2.56.
The figure for FVAFALCMECLYSFMPLVIKVTSA is 3.49; for FVAFALCMMCLYSFMPLVIKVTSA it is 3.23; for FVAFALCMCCLYSFMPLVIKVTSA it is 2.94.
The figure for FVAFALCMNCLYSFMPLVIKVTSA is 2.31; for FVAFALCMYCLYSFMPLVIKVTSA it is 2.79; for FVAFALCMQCLYSFMPLVIKVTSA it is 2.59.
As to FVAFALCMWCLYSFMPLVIKVTSA, the protein stability index was 2.68.
Consider FVAFALCMACLYSFMPLVIKVTSA, for which the protein stability index turned out to be 2.62.
Take FVAFALCMFCPYSFMPLVIKVTSA: the protein stability index came to 1.84.
In the case of FVAFALCMFCYYSFMPLVIKVTSA, the protein stability index worked out at 2.67.
For FVAFALCMFCDYSFMPLVIKVTSA, the protein stability index was determined as 3.52.
As to FVAFALCMFCKYSFMPLVIKVTSA, the protein stability index was found to be 3.17.
FVAFALCMFCHYSFMPLVIKVTSA: the protein stability index worked out at 2.99.
Regarding FVAFALCMFCNYSFMPLVIKVTSA, the protein stability index was found to be 3.45.
On to FVAFALCMFCCYSFMPLVIKVTSA, for which the protein stability index was determined as 3.54.
The figure for FVAFALCMFCQYSFMPLVIKVTSA is 3.66.
As for FVAFALCMFCFYSFMPLVIKVTSA, the protein stability index worked out at 2.21.
Regarding FVAFALCMFCRYSFMPLVIKVTSA, the protein stability index amounted to 2.85.
FVAFALCMFCTYSFMPLVIKVTSA: the protein stability index was found to be 2.43.
For the variant FVAFALCMFCVYSFMPLVIKVTSA, the protein stability index is 3.
As for FVAFALCMFCIYSFMPLVIKVTSA, the protein stability index stood at 3.19.
Consider FVAFALCMFCEYSFMPLVIKVTSA, for which the protein stability index is 4.11.
With FVAFALCMFCSYSFMPLVIKVTSA, the protein stability index came to 4.04.
In the case of FVAFALCMFCGYSFMPLVIKVTSA it was 2.39.
For the variant FVAFALCMFCAYSFMPLVIKVTSA, the protein stability index amounted to 3.07.
As for FVAFALCMFCWYSFMPLVIKVTSA, the protein stability index was found to be 2.44.
For the variant FVAFALCYFCLYSFMPLVIKVTSA, the protein stability index came out at 3.31.
In the case of FVAFALCSFCLYSFMPLVIKVTSA, the protein stability index is 3.3.
Consider FVAFALCNFCLYSFMPLVIKVTSA, for which the protein stability index was 3.69.
The figure for FVAFALCPFCLYSFMPLVIKVTSA is 2.4; for FVAFALCVFCLYSFMPLVIKVTSA it is 3.38.
For FVAFALCWFCLYSFMPLVIKVTSA, the protein stability index turned out to be 3.65.
Take FVAFALCTFCLYSFMPLVIKVTSA: the protein stability index came to 2.72.
For the variant FVAFALCRFCLYSFMPLVIKVTSA, the protein stability index came out at 3.49.
Take FVAFALCQFCLYSFMPLVIKVTSA: the protein stability index came out at 2.57.
With FVAFALCMFCLYSFMMLVIKVTSA, the protein stability index amounted to 1.92.
As to FVAFALCMFCLYSFMFLVIKVTSA, the protein stability index worked out at 2.59.
FVAFALCMFCLYSFMILVIKVTSA: the protein stability index worked out at 2.99.
Regarding FVAFALCMFCLYSFMVLVIKVTSA, the protein stability index was 1.69.
For FVAFALCMFCLYSFMRLVIKVTSA, the protein stability index was found to be 2.79.
Regarding FVAFALCMFCLYSFMDLVIKVTSA, the protein stability index turned out to be 2.99.
As to FVAFALCMFCLYSFMHLVIKVTSA, the protein stability index is 3.01.
Consider FVAFALCMFCLYSFMLLVIKVTSA, for which the protein stability index came to 2.86.
In the case of FVAFALCMFCLYSFMELVIKVTSA it was 1.85.
As to FVAFALCMFCLYSFMKLVIKVTSA, the protein stability index is 2.06.
As for FVAFALCMFCLYSFMSLVIKVTSA, the protein stability index came to 3.48.
As to FVAFALCMFCLYSFMTLVIKVTSA, the protein stability index stood at 2.05.
Take FVAFALCMFCLYSFMGLVIKVTSA: the protein stability index was 2.85.
The figure for FVAFALCMFCLYSFMYLVIKVTSA is 4.47.
Turning to FVAFALCMFCLYSFMQLVIKVTSA, the protein stability index was 2.65.
FVAFALCMFCLYSFMNLVIKVTSA: the protein stability index stood at 3.51.
The figure for FVAFALCMFCLYSFMCLVIKVTSA is 3.1; for FVAFALCMFCLYSFMALVIKVTSA it is 3.6; for FVAFALCMFCLYSFMWLVIKVTSA it is 2.66.

The values are drawn from the supplement of paper PMC10567573.
